For the assay, the target named is T1, His-MyoD (1-320 aa) (UniProt P15172 1-320).
T1 sequence (looked up): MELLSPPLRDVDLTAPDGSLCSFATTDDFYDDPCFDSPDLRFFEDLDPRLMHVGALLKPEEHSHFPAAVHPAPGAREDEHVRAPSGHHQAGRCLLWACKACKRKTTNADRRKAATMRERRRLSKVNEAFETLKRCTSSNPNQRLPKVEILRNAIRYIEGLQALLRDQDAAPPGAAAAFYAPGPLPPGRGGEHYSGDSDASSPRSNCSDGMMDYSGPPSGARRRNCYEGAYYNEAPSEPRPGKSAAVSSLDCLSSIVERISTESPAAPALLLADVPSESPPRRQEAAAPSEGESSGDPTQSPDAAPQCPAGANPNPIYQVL
The assay is described as follows: far-Western, overlay or dot blot.

B1: GST-MLP-a (1-194 aa) (natural protein, human, UniProt P50461-1 1-194, looked up)
chain: MPNWGGGAKCGACEKTVYHAEEIQCNGRSFHKTCFHCMACRKALDSTTVAAHESEIYCKVCYGRRYGPKGIGYGQGAGCLSTDTGEHLGLQFQQSPKPARSVTTSNPSKFTAKFGESEKCPRCGKSVYAAEKVMGGGKPWHKTCFRCAICGKSLESTNVTDKDGELYCKVCYAKNFGPTGIGFGGLTQQVEKKE
As for B1, the binding result is “binds”.

Source of the values: article PMC4416226 (The FEBS journal, 2014).
